Test results reported in PMC11224324, “Structural and functional insights underlying recognition of histidine phosphotransfer protein in fungal phosphorelay systems” (Communications Biology, 2024).

B1: Histag-Ct_HPt (residues 9-175), labelled with Red-Tris NTA dye (natural protein)
chain: ADRAQDHNNNNTPRNSNYVVEEEEVSEEEEEAIMMPDFGDHVDTSIFGQILEMDEGDDHDFSAPLVLNFFEQAEETFQKMETALNNKDLPELSKLGHFLKGSSATLGFTKIRDSCQLIQQYGHGLNVDGSSEPDEGVCLKKIAEALASARVDTVALHKMMREFFEY
modifications: Red-Tris NTA Dye bound to the Histag
B2: REC_(hHK3) N1107A/N1110A, double mutant of the REC-1 domain of hHK3 from Chaetomium thermophilum (domain or fragment)
chain: ENRATPSLADNTRSFEILLAEDAAVAQRLAVKILEKYHHVVTVVGNGEEAVEAVKRKKFDVILMDVQMPVMGGFEATAKIREYEASLPTPQRTPIIALTAHAMMGDREKCLEAQMDEYLSKPLQQANLIQTILKCA

Columns and labels:
Assay in all cases: MST; Histag-Ct_HPt labelled with Red-Tris NTA dye held constant; REC-1 domain in sixteen two-fold dilutions from 1 mM (0.32 mM for REC_hHK6); PBS + 0.05% Tween-20; medium MST power; hyperbolic fit, 1:1 model; mean of two titrations
Conditions in all cases: both partners purified
[1] = target: T1, REC_(hHK6), REC-1 domain of hybrid histidine kinase hHK6 (group VI, ortholog of Sln1) from Chaetomium … (Chaetomium thermophilum)
T1 construct: REC-1 (receiver) domain of hHK6, CTHT_0050920, group VI hybrid histidine kinase of C. thermophilum (protein ends at residue 1290); also called REC_(hHK6)-BeF; not shown: His6, N-terminal, cleaved

[2] = target: T2, REC_(hHK3), REC-1 domain of hybrid histidine kinase hHK3 (group III, ortholog of Nik1) from Chaetomium … (Chaetomium thermophilum)
T2 construct: REC-1 (receiver) domain of hHK3, CTHT_0053860, group III hybrid histidine kinase of C. thermophilum; not shown: His6, N-terminal, cleaved

[3] = target: B1

Row | Binder | Kd [1] | Kd [2] | Kd [3]
1 | B1 | 13 ± 0.04 µM | 28 ± 0.1 µM | –
2 | B2 | – | – | 46 ± 0.07 µM
